Measured values published in patent CN115947850A (BEIJING DONGFANG BIOTECH CO LTD, dated 2023).

Key:
[1] = molecular target: T1, LILRB4 on the surface of human monocytic leukemia cells (THP-1) (human, UniProt Q8NHJ6 22-448); test: flow cytometry on THP-1 cells, FITC goat anti-mouse IgG detection
T1 construct: whole, on cells; also called THP-1细胞表面的LILRB4

[2] = molecular target: T1, LILRB4 on the surface of human …; test: flow cytometry competition on THP-1 cells; competitor FITC-labelled ApoE at 0.4 μg/mL
LILRB1 = LILRB1 (UniProt Q8NHL6 24-461, limits assumed); test: ELISA, coated LILR protein 100 ng/well
Sequence of LILRB1 (Q8NHL6 24-461 limits assumed): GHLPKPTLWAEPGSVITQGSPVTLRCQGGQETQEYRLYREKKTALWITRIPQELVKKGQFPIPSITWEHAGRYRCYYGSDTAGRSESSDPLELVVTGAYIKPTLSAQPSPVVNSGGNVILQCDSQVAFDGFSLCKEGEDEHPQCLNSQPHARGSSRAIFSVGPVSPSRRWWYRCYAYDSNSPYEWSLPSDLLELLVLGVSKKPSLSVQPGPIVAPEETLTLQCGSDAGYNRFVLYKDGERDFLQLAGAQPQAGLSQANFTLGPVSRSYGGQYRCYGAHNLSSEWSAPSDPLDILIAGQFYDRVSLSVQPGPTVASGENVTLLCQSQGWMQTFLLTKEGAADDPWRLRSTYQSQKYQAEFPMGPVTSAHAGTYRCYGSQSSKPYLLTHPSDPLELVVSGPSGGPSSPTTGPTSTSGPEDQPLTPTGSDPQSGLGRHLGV

LILRB3 = LILRB3 (UniProt O75022 24-443, limits assumed); test: ELISA, coated LILR protein 100 ng/well
Sequence of LILRB3 (O75022 24-443 limits assumed): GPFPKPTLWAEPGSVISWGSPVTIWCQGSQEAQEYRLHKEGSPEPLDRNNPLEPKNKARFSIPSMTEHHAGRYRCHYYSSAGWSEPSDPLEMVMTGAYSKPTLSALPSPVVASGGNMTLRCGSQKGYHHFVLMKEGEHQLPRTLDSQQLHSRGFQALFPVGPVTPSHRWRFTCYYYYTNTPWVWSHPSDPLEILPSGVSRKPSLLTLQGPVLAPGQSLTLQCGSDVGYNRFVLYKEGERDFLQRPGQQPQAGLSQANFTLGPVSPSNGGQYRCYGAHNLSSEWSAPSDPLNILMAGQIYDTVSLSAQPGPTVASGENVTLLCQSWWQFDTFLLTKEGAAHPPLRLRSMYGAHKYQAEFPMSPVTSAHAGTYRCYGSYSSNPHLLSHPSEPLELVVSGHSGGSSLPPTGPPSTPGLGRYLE

LILRA6 = LILRA6 (UniProt Q6PI73 24-447, limits assumed); test: ELISA, coated LILR protein 100 ng/well
Sequence of LILRA6 (Q6PI73 24-447 limits assumed): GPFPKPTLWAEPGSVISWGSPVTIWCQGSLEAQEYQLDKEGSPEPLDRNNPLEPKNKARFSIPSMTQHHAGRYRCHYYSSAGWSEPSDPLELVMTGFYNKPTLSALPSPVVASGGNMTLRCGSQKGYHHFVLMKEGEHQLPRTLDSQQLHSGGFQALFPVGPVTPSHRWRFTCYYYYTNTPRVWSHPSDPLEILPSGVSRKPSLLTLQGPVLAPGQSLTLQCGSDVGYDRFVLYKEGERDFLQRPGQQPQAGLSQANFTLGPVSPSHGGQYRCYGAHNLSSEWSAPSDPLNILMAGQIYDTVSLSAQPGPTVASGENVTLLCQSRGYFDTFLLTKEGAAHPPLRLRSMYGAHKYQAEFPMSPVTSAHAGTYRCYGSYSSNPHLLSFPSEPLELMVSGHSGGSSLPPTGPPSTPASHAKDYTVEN

LILRA4 = LILRA4 (UniProt P59901 24-446, limits assumed); test: ELISA, coated LILR protein 100 ng/well
Sequence of LILRA4 (P59901 24-446 limits assumed): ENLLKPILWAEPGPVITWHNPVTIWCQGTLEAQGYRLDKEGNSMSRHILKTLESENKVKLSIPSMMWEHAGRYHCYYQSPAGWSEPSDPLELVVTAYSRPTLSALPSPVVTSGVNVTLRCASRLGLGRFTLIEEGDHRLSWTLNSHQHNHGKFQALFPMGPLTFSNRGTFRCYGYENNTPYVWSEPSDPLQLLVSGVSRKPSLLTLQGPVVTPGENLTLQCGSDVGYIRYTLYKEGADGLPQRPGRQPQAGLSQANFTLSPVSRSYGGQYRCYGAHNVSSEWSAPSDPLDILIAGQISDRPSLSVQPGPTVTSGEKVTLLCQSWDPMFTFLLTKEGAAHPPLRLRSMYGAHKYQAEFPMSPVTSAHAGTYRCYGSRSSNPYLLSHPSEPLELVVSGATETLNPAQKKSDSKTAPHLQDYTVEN

LILRA3 = LILRA3 (UniProt Q8N6C8 24-439); test: ELISA, coated LILR protein 100 ng/well
Sequence of LILRA3 (Q8N6C8 24-439 limits assumed): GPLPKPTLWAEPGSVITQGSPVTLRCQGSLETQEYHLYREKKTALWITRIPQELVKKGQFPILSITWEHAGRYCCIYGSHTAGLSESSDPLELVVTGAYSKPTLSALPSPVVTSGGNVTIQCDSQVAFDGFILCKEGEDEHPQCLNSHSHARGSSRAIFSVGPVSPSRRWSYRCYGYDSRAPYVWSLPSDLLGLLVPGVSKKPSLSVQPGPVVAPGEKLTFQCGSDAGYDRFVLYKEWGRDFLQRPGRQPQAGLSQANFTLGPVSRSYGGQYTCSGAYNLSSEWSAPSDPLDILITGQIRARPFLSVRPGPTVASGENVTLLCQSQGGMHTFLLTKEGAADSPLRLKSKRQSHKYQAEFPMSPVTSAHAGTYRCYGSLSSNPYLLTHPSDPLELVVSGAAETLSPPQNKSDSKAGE

LILRA1 = LILRA1 (UniProt O75019 17-461, limits assumed); test: ELISA, coated LILR protein 100 ng/well
Sequence of LILRA1 (O75019 17-461 limits assumed): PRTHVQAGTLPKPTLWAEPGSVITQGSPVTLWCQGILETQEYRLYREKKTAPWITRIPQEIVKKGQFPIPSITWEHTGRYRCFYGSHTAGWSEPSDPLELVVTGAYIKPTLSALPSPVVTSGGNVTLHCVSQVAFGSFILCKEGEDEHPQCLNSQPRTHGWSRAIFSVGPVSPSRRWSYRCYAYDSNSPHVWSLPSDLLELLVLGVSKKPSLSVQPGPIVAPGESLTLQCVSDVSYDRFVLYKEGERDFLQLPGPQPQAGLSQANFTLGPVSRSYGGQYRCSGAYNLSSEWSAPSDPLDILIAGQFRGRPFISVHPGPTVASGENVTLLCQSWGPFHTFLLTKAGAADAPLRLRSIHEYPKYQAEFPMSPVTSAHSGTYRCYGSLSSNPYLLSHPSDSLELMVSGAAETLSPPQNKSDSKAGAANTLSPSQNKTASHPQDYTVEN

LILRB5 = LILRB5 (UniProt O75023 24-458, limits assumed); test: ELISA, coated LILR protein 100 ng/well
Sequence of LILRB5 (O75023 24-458 limits assumed): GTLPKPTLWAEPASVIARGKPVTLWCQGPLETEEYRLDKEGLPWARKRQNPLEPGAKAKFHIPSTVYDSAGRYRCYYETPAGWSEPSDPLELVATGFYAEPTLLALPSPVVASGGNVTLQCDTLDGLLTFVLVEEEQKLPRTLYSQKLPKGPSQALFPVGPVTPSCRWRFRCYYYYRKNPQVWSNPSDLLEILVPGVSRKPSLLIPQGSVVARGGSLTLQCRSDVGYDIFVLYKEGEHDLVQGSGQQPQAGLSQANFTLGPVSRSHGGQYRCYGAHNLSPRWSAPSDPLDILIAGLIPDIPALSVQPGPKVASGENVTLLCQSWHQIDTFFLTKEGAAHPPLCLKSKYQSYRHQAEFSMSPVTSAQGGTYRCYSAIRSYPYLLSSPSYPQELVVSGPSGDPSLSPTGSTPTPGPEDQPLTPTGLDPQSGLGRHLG

LILRA2 = LILRA2 (UniProt Q8N149 24-449, limits assumed); test: ELISA, coated LILR protein 100 ng/well
Sequence of LILRA2 (Q8N149 24-449 limits assumed): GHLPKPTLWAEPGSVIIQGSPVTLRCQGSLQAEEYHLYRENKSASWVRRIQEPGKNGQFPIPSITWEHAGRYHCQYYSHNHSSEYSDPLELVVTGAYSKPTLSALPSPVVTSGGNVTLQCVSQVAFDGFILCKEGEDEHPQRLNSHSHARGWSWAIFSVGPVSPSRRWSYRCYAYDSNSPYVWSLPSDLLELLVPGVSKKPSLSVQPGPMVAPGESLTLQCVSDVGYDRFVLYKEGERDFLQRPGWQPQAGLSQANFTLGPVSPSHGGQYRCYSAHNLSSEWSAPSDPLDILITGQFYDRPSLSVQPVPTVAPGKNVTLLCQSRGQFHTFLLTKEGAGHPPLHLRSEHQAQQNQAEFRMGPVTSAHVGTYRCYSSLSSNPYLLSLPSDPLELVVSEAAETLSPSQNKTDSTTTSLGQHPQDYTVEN

LILRB2 = LILRB2 (UniProt Q8N423 22-460, limits assumed); test: ELISA, coated LILR protein 100 ng/well
Sequence of LILRB2 (Q8N423 22-460 limits assumed): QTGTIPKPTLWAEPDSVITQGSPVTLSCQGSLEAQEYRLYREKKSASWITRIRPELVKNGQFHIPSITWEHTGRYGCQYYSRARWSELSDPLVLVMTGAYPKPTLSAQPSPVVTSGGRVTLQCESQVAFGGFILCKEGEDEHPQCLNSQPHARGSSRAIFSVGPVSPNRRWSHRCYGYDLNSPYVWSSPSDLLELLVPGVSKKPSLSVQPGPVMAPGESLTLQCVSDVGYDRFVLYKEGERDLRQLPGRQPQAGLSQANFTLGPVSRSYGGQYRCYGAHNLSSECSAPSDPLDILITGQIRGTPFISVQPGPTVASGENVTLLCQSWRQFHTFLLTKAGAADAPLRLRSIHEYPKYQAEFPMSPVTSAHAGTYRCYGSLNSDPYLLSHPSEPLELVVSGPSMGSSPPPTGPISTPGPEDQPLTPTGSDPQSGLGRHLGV

LILRA5 = LILRA5 (UniProt A6NI73 42-268, limits assumed); test: ELISA, coated LILR protein 100 ng/well
Sequence of LILRA5 (A6NI73 42-268 limits assumed): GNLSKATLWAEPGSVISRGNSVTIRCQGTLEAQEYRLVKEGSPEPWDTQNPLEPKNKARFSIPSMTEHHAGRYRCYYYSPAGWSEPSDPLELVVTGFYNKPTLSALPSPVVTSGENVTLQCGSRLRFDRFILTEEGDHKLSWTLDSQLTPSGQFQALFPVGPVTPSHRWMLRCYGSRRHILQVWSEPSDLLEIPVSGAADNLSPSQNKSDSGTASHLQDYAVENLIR

[3] = molecular target: T1, LILRB4 on the surface of human …; test: cell-based or functional assay
[4] = molecular target: T2, human LILRB4 extracellular domain (LILRB4抗原, LILRB4蛋白胞外段) (human, UniProt Q8NHJ6 22-259); test: ELISA, coated LILRB4 100 ng/well, goat anti-mouse IgG-HRP detection
T2 construct: extracellular domain; also called 人LILRB4

- EC50 [1]: 5.48 µg/mL
- IC50 [2]: 9.69 µg/mL
- binding result (LILRB1): no binding (tested: 50μg/mL)
- binding result (LILRB3): no binding (tested: 50μg/mL)
- binding result (LILRA6): no binding (tested: 50μg/mL)
- binding result (LILRA4): no binding (tested: 50μg/mL)
- binding result (LILRA3): no binding (tested: 50μg/mL)
- binding result (LILRA1): no binding (tested: 50μg/mL)
- binding result (LILRB5): no binding (tested: 50μg/mL)
- binding result (LILRA2): no binding (tested: 50μg/mL)
- binding result (LILRB2): no binding (tested: 50μg/mL)
- binding result (LILRA5): no binding (tested: 50μg/mL)
- IC50 of inhibition of ARG1 secretion by THP-1 cells in the presence of ApoE (arginase activity kit) [3]: 330 µg/mL
- EC50 [4]: 0.375 µg/mL
B1: ME-Ⅰ anti-LILRB4 monoclonal antibody (mouse IgG1 / Cκ) (antibody, V domains shown)
VH: EVQLEQSGAEVVKPGASVKLSCKASGYTFISYWMHWVKQRPGQGLEWIGEINPTNGRTNYNEKFKSKATLTVDKSSGTAYMQLSSLTSEDSAVYYCARWGQLGLREGYYAVDYWGQGTSVTVSS
VL: DIVLTQSPSSLSASLGDRVTISCRASQDISNYLNWYQQNPNGTVKLLIYYTSRLHSGVPSRFSGSGSGTDYSLTISNLEQEDIATYFCQQGDTLPPTFGGGTKLEIKA
notes: also called 单克隆抗体ME-Ⅰ; ME-Ⅰ抗LILRB4单克隆抗体
